{"source": "paper PMC5024094", "about": "“Identification of a novel sesquiterpene biosynthetic machinery involved in astellolide biosynthesis” (Scientific Reports, 2016)", "proteins": {"B1": {"name": "AstA (Aspergillus oryzae RIB40) (protein)", "chain": "MDLEPWGPLYRKQDQDGSLDNIAVVSGDIPSPHPKNEPSQTSTLHIPRDSDLDSDIPSVPTALIIAWGLTLSSLTGDEVVGFDLLPFRGDYQDLGARPYHFLLKFGYREWSREAATTGMDLGSASSEGLPQGMGNRPQIAPSRFRNVLIIKQCSDAPGDSGSLESPSLGNVDKDEPTDAFRADMFISIQCGIGRTGIDVHCSFDPAFWTSENIRMILLDLSRNFKEVMRCGRDDTPLTCLEGMSPKGLDCVLRRNIIPPPPKMEACVHHRFQARCRQNPSALAIDAWDGQLTYAELDSLSSQLASRLVSSITICPRGFMGVLMEKSAWVPVAILAVLKVGSAFVFLDGSQPLQRLKIICAETKSQLVLSSAHYREKANTLGPPVLLVEKNQSGLGQAKENDSCPSLLEDYPQPQSQPQDTLYAVFTSGSTGEPKGAMVDHGAFCTMCGPQMAARPTTNVSPRVFQFAPHAFTVSILDYLGTLLQGGCVCVPSEEELRNNMAGAIEGLSANIVTMTPSMARVLDPTQTPSLQLVLLAGEMMAQCDLDKWSQCVRLLSLYGQSENAAGSMISEKSIVPRAPNTFETLTPGFQCWIVSQDNPHRLMALGEVGELLLEGPALGQGYMNDPIQTEDKFICRSFCLEYAHSGSPQSYRLFKTGDLVRYTPAGEIELLGRKGAEVKLRGQRIDLTEIEHHLRCLFPSATRVVADVIIPSDDIDGLHPVLAAFVQVDSVSRTGQSAEATFASPRPEFRAEAKAVLSGLCQTIPSYMIPMTIIPTEAFPFTATGKLDRRSLRQYASAMSRSDLLKYVTDDRGPVVTAVTPVEIIIHDACVEALGVSSDKVGMLDSFPDLGGDSLAARRMVSICRTKGLELAVADILAHSSLTSLAEKCSAGGGGAKQISQGVEMLDPFSTAKEEFLSHLPSFLPNADMIADVFPVQGAQRRAARAIDTFIFRLSGPVDADRLRDACQVLQQAHLALRSIFVPFYGKFMQVVLRVPPLDFTRRLLPDGTDLVKWAESIGQADKTQRPPSEEFVVRFTLAETAGTPDYSIFMMRLSHAQYDAGCLARIISDLWAVYEQKQLVVKSDFAQYARRAVQQTHLLSMEAFWRDLLAGTTGLTPLPVTGISAEEERTIIVQQRVELKEPPPTGISMATVVRGAWSWVLHQQTGNTVVVFNEMLNGRDVVPLEDTEPVVGACHSIVPVCVHFPLPQSGRTPRELLSALQEQHLASLTFTTLDRDYLIQNCTEWTSHQSGFILAYQNFPEICDLVIGEDLSCQWASQVLDLAEPGEAWVTATPLPGALQISLRVSTAAMDEQEANAWISALGQTIIRFLDSPDSVL", "notes": "recombinant, expressed in Escherichia coli BL21, purified; 1338 aa gene product with A, T and C domains; tag details only in supplement"}}, "key": {"purified protein [1]": {"substrate": "O=C(O)c1ccc(O)cc1", "test": "purified protein", "settings": "A-domain, 2.5 mM ATP, 5 mM MgCl2, 50 mM Tris-HCl pH 7.4, 1 mM DTT, 2 μM AstA, Sfp modification of T-domain essential"}, "purified protein [2]": {"substrate": "O=C(O)c1ccccc1", "test": "purified protein", "type": "biochemical, Aspergillus oryzae", "settings": "A-domain, 2.5 mM ATP, 5 mM MgCl2, 50 mM Tris-HCl pH 7.4, 1 mM DTT, 2 μM AstA, Sfp modification of T-domain essential"}}, "data": [{"protein": "B1", "values": [{"measurement": "Km", "setting": "purified protein [1]", "value": 3.8, "unit": "µM"}, {"measurement": "kcat", "setting": "purified protein [1]", "value": 0.0163, "unit": "s⁻¹"}, {"measurement": "Km", "setting": "purified protein [2]", "value": 4.9, "unit": "µM"}, {"measurement": "kcat", "setting": "purified protein [2]", "value": 0.0222, "unit": "s⁻¹"}]}]}
